# In PMC7486200:
# B1: GATA probe, two GATA sites (dsDNA)
# DNA 1: CACTTGATAACACAAAGTGATAACTCT
# DNA 2: AGAGTTATCACTTTGTGTTATCAAGTG
# B2: mutant GATA competitor (dsDNA)
# DNA 1: CACTTAGCGACACAAAGTAGCGACTCT
# DNA 2: AGAGTCGCTACTTTGTGTCGCTAAGTG
# Columns and labels:
# [1] = target: FAM122A (UniProt Q96E09 1-287); experiment: EMSA
# [2] = target: GATA1 (UniProt P15976 1-413); experiment: competition
# Chain of GATA1 (P15976 whole entry): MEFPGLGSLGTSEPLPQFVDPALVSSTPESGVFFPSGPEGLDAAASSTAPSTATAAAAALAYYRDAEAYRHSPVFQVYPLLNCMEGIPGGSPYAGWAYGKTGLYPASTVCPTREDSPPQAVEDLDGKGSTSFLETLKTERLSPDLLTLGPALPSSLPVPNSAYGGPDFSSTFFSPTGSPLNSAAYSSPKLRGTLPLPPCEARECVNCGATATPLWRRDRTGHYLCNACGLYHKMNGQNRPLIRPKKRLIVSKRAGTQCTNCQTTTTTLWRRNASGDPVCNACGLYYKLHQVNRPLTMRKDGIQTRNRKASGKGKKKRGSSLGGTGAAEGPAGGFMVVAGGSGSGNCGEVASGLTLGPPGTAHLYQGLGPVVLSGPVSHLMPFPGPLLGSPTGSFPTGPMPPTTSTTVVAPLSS
# Chain of FAM122A (Q96E09 whole entry): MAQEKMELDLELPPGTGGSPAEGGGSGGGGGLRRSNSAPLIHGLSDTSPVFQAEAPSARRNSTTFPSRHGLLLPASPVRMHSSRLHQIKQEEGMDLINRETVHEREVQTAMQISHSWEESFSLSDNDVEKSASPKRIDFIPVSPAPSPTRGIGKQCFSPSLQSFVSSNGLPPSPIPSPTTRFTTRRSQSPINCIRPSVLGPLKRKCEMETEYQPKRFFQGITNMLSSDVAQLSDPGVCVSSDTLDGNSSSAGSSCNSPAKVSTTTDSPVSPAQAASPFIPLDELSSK
Binder,binding result [1],binding result [2]
B1,no binding,–
B2,–,no binding
